# Reference: PMC7991746
# Legend:
# [1] = biological target: DUSP3-C124S mutant (phosphatase dead) (UniProt P51452); assay: SPR; Biacore T100; DUSP3-WT or DUSP3-C124S immobilised on CM5 sensorchip (200 RU); protein analytes 12.5-1,000 nM; kinetic assays at 25°C, HBS-EP buffer, 10 μl/min, 120 s association, 300 s dissociation; three independent experiments
# [2] = biological target: DUSP3-WT (dual-specificity phosphatase 3) (UniProt P51452); assay: as above
# [3] = biological target: dual-specificity phosphatase 3 (DUSP3), wild type (UniProt P51452); assay: SPR; Biacore T100; DUSP3-WT or DUSP3-C124S immobilised on CM5 sensorchip (200 RU); analytes 12.5 to 1,000 nM; 25°C; HBS-EP buffer; association 120 s, dissociation 300 s, 10 μl/min
# Chain of dual-specificity phosphatase 3 (DUSP3), wild type (P51452 whole entry): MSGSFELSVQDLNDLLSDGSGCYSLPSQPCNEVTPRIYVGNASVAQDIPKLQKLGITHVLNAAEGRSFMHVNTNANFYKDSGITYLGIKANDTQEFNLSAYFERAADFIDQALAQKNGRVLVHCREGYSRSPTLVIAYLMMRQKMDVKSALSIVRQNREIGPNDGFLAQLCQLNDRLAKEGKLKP
# Chain of DUSP3-WT (dual-specificity phosphatase 3) (P51452 whole entry): as above
# Chain of DUSP3-C124S mutant (phosphatase dead) (P51452 whole entry C124S): as the sequence (P51452 whole entry) above, with C124S counted along it
Kd [1],Kd [2],fold higher affinity than ERK1 [3],fold higher affinity than NPM 9-122 [3],Substance
393 nM,294 nM,–,–,truncated N-terminal of NPM 9-122 (domain or fragment)
–,–,10 fold,17 fold,nucleophosmin (NPM) full length (natural protein)
11.5 nM,17.2 nM,–,–,NPM full length (nucleophosmin) (natural protein)
